In paper PMC4961446, “Dual Role of a Biosynthetic Enzyme, CysK, in Contact Dependent Growth Inhibition in Bacteria” (PLoS ONE, 2016):
Values joined by “and” are separate entries in the source; they are usually repeats but may differ in a detail not shown here. Identical values can stand only once.

Experiments:
RelE (Escherichia coli) = RelE (Escherichia coli) (UniProt P0C077); settings: cited from earlier work
[1] = molecular target: CdiA-CT^536(H3193A) (Escherichia coli strain 536 (UPEC536)); test: AUC; sedimentation velocity, 40,000 rpm, 15°C, 20 mM HEPES pH 7.5, 250 mM NaCl; 10, 20 and 30 μM; c(s) model in SEDFIT; complexes mixed and incubated at 4°C for 1 h
[2] = molecular target: CdiA-CT^536(H3193A) (Escherichia coli strain 536 (UPEC536)); test: SPR; Biacore 3000, 30°C; CdiA-CT^(M) immobilized on CM5 chip (723 RU); 10 mM HEPES pH 7.5, 150 mM NaCl, 20 μl/min; analyte CdiI 5-40 nM (1:1 Langmuir model) or CysK 0.4-6.4 μM dimer
[3] = molecular target: CdiA-CT^(M)/CysK complex (heterotetramer) (Escherichia coli strain 536 (UPEC536) | E. coli K12) (UniProt P0ABK5); test: SPR; Biacore 3000, 30°C; CdiA-CT^(M) immobilized on a separate CM5 chip (760 RU), first 0.6 μM CysK (dimer) passed over it to form the CdiA-CT^(M)/CysK complex, then CdiI injected at 2.5-40 nM; local fitting, separate ka/kd model
[4] = molecular target: CdiA-CT^(M)/CysK complex (heterotetramer) (Escherichia coli strain 536 (UPEC536) | E. coli K12) (UniProt P0ABK5); test: ITC; 30°C, 20 mM HEPES pH 7.5, 150 mM NaCl; CdiA-CT^(M) or its preformed complex in the sample cell, CdiI or CysK (dimer concentration) in the syringe; one-site model for CdiA-CT^(M)/CdiI, two binding site model where CysK is involved; apparent enthalpy
[5] = molecular target: CdiA-CT^536(H3193A) (Escherichia coli strain 536 (UPEC536)); test: as above
[6] = molecular target: SpoIISB (Bacillus subtilis) (UniProt O34800); settings: cited from earlier work
SpoIISB (Bacillus subtilis), sequence (O34800 whole entry): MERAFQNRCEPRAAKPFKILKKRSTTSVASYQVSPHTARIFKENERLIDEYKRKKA

CysK = molecular target: T1, CysK (Escherichia coli, UniProt P0ABK5); test: ITC
T1 chain: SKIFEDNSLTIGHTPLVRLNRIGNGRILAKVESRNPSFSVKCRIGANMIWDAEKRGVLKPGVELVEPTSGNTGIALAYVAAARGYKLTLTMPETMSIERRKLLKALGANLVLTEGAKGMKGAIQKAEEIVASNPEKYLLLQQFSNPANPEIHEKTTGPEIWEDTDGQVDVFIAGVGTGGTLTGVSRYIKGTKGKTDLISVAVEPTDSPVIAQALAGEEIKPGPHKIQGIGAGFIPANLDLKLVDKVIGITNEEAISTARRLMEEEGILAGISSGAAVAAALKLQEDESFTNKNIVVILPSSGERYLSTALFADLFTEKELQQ

[7] = molecular target: CdiA-CT^(M)/CdiI complex (heterodimer) (Escherichia coli strain 536 (UPEC536)); test: AUC; sedimentation velocity, 40,000 rpm, 15°C, 20 mM HEPES pH 7.5, 250 mM NaCl; 10, 20 and 30 μM; c(s) model in SEDFIT; complexes mixed and incubated at 4°C for 1 h; settings: scale: CysK chain per CdiA-CT^(M)/CdiI heterodimer
CdiA-CT^(M)/CdiI complex (heterodimer) (Escherichia coli strain 536 (UPEC536)), sequence (Q0T964 whole entry, one chain of several): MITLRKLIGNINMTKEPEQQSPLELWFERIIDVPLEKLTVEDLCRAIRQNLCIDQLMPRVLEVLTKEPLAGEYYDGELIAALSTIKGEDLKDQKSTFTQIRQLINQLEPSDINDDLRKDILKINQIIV

[8] = molecular target: the molecule itself; test: as above
[9] = molecular target: the molecule itself; test: SEC; analytical SEC, Superdex 200 Increase 10/300 GL, 20 mM HEPES pH 7.5, 250 mM NaCl, ~15°C; samples 10, 20 and 30 μM; for complexes purified proteins mixed in varying molar ratios and incubated at 4°C for 1 h; fractions analysed by SDS-PAGE
[10] = molecular target: CdiA-CT^(M)/CdiI complex (heterodimer) (Escherichia coli strain 536 (UPEC536)); test: ITC; 30°C, 20 mM HEPES pH 7.5, 150 mM NaCl; CdiA-CT^(M) or its preformed complex in the sample cell, CdiI or CysK (dimer concentration) in the syringe; one-site model for CdiA-CT^(M)/CdiI, two binding site model where CysK is involved; apparent enthalpy

RelE (Escherichia coli), sequence (P0C077 whole entry): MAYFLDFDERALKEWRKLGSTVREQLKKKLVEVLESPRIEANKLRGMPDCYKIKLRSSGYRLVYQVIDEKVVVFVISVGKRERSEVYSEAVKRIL

In the case of RelB (from UniProt P0C079), the Kd (RelE (Escherichia coli)) is given as 0.33 nM.

In the case of CdiI (natural protein), the stoichiometry N (CdiI per CdiA-CT^(M) (1:1)) [1] is reported as 1, the Kd [2] is reported as 12.8 nM and the koff [2] is reported as 0.065 s⁻¹. It also gave a kon [2] of 5.1e+06 M⁻¹ s⁻¹, a Kd [3] of 0.3 nM and a koff [3] of 0.0005 s⁻¹. For the same molecule, the kon [3] was 1.5e+06 M⁻¹ s⁻¹, the KD1, first site [4] was 1.3 nM and the KD2, second site [4] was 1.1 nM. It also gave a dH, first site [4] of -26.7 kcal/mol, a dH, second site [4] of -24.2 kcal/mol and a stoichiometry N [4] of 1.89. It also gave a Kd [5] of 26.4 nM, a dH [5] of -29 kcal/mol and a stoichiometry N [5] of 0.993.

For SpoIISA (from UniProt O34853), the Kd [6] is given as 0.46 nM.

B1: CdiA-CT CT (protein)
chain: VENNALSLVARGCAVAAPCRTKVAEQLLEIGAKAGMAGLAGAAVKDMADRMTSDELEHLITLQMMGNDEITTKYLSSLHDKYGSGAASNPNIGKDLTDAEKVELGGSGSGTGTPPPSENDPKQQNEKTVDKLNQKQESAIKKIDNTIKNALKDHDIIGTLKDMDGKPVPKENGGYWDHMQEMQNTLRGLRNHADTLKNVNNPEAQAAYGRATDAINKIESALKGYGI
For B1, the Kd (CysK) was 79.3 nM and 89.2 nM.

B2: CysK (O-acetylserine sulfyhydrylase) (enzyme, E. coli K12, UniProt P0ABK5 1-323, looked up)
chain: MSKIFEDNSLTIGHTPLVRLNRIGNGRILAKVESRNPSFSVKCRIGANMIWDAEKRGVLKPGVELVEPTSGNTGIALAYVAAARGYKLTLTMPETMSIERRKLLKALGANLVLTEGAKGMKGAIQKAEEIVASNPEKYLLLQQFSNPANPEIHEKTTGPEIWEDTDGQVDVFIAGVGTGGTLTGVSRYIKGTKGKTDLISVAVEPTDSPVIAQALAGEEIKPGPHKIQGIGAGFIPANLDLKLVDKVIGITNEEAISTARRLMEEEGILAGISSGAAVAAALKLQEDESFTNKNIVVILPSSGERYLSTALFADLFTEKELQQ
notes: CysK (O-acetylserine sulfhydrylase), amplified from E. coli K12 genomic DNA, in pNIC28-Bsa4; Cloned between NcoI/XhoI of pNIC28-Bsa4; also called CysK dimer; source: E. coli BL21(DE3), purified (Co-NTA, gel filtration)
For B2, the stoichiometry N [7] was 1, the stoichiometry N (CysK chain per CdiA-CT^(M) chain (2:2)) [1] was 1 and the “stoichiometry N” value [8] was 2. It also gave a Kd [2] of 32 nM, a koff [2] of 0.00014 s⁻¹ and a kon [2] of 6200 M⁻¹ s⁻¹. The “stoichiometry N” value [9] was 2, the KD1, first site [10] was 12 nM and the KD2, second site [10] was 13.4 nM. For the same molecule, the dH, first site [10] was -11 kcal/mol, the dH, second site [10] was -26.7 kcal/mol and the stoichiometry N [10] was 0.512. It also gave a KD1, first site [5] of 79.3 nM, a KD2, second site [5] of 89.2 nM and a dH, first site [5] of -5.62 kcal/mol. It also gave a dH, second site [5] of -20.2 kcal/mol and a stoichiometry N [5] of 0.494.
